According to paper PMC8034659:
Positions count from the first letter of the chain named.

Assays:
Assay in all cases: SPR
TrfA E361K = target: T1, TrfA E361K (plasmid RK2, UniProt P07676 98-382, G254D;S267L;E361K)
T1 sequence: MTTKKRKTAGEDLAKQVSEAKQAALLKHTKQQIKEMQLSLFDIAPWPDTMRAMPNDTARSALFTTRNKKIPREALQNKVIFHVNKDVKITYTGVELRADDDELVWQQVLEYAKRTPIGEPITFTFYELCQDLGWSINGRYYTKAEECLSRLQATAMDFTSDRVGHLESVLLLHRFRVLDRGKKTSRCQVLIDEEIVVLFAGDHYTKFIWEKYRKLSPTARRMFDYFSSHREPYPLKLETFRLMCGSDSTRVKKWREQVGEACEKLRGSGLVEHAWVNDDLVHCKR

TrfA R169E = target: T2, TrfA R169E (plasmid RK2, UniProt P07676 98-382, R169E;G254D;S267L)
T2 sequence: T1 sequence with R72E, K264E

TrfA A171T = target: T3, TrfA A171T (plasmid RK2, UniProt P07676 98-382, A171T;G254D;S267L)
T3 sequence: T1 sequence with A74T, K264E

TrfA P151S/E361K = target: T4, TrfA P151S/E361K (plasmid RK2, UniProt P07676 98-382, P151S;G254D;S267L;E361K)
T4 sequence: T1 sequence with P54S

TrfA T105E = target: T5, TrfA T105E (plasmid RK2, UniProt P07676 98-382, T105E;G254D;S267L)
T5 sequence: T1 sequence with T8E, K264E

[1] = target: T6, TrfA wt (G254D/S267L, 33 kDa) (plasmid RK2, UniProt P07676 98-382, G254D;S267L)
T6 sequence: T1 sequence with K264E

TrfA P168E = target: T7, TrfA P168E (plasmid RK2, UniProt P07676 98-382, P168E;G254D;S267L)
T7 sequence: T1 sequence with P71E, K264E

B1: five RK2 iterons (ItT/ItB) (dsDNA)
DNA 1: CCTGCGGTATTGACACTTGAGGGGCGCGACTACTGACAGATGAGGGGCGCGATCCTTGACACTTGAGGGGCAGAGTGATGACAGATGAGGGGCGCACCTATTGACATTTGAGGGGCTGTCCACAGGCAG
DNA 2: CTGCCTGTGGACAGCCCCTCAAATGTCAATAGGTGCGCCCCTCATCTGTCATCACTCTGCCCCTCAAGTGTCAAGGATCGCGCCCCTCATCTGTCAGTAGTCGCGCCCCTCAAGTGTCAATACCGCAGG
TrfA E361K
  binding result: binds
TrfA R169E
  binding result: no binding
TrfA A171T
  binding result: binds
TrfA P151S/E361K
  binding result: binds
TrfA T105E
  binding result: binds
[1]
  binding result: binds
TrfA P168E
  binding result: binds
